Data as given in patent US20130209458A1.

Target: MUC1 (TA-Muc1) on the human tumor cell line ZR-75-1 (human) (UniProt P15941)
Assay: Scatchard analysis, 111In-labelled antibody on ZR-75-1 cells

| Kd | Substance |
| --- | --- |
| 7.8 nM | PankoMab expressed in CHO (antibody) |
| 3.33 nM | PankoMab expressed in GT-5s (antibody) |
